167 variants from the RNAGym collection of RNA variant scans (doi:10.7554/elife.90254) can be followed below.

The labels stand for the following.
B1: LINE1-full (parent)
chain: UACGUAGGUGGUUUUCCCCUGAUAGUGCUAAGGGGGCCUGGAAGUUUGGACUGGGCAGAGCUCAACACAGCGUGGCAAAGUGGCUGUGGCUAGACUGCCUCUCUGGAUUCCUCGUCACUCAGCAGGGCAUCUCUGAGAGAAAUGCC

Variants of B1 are the subject of this data set. The data set is described as follows: self-cleavage, relative activity (ratio to wild type); higher = more cleavage; in vitro, sequencing; the parent is a self-cleaving ribozyme.
G11A U132C: the self-cleavage was determined as 1.03.

On to G11A A43G, for which the self-cleavage was determined as 1.42.

Regarding G11A C120U, the self-cleavage was found to be 1.35.

For U9G U47C, the self-cleavage was 0.54.

As for G11A A50C, the self-cleavage turned out to be 1.24.

G10A A31G: the self-cleavage amounted to 0.45.

G11A A69G: the self-cleavage came out at 0.48.

As to G10U U62C, the self-cleavage turned out to be 0.06.

Regarding G11A U29C, the self-cleavage was found to be 1.25.

Regarding G11U A69G, the self-cleavage worked out at 0.44.

On to G11A U15A, for which the self-cleavage was 0.99.

As for G10U A42G, the self-cleavage was 0.

Turning to G10U A50U, the self-cleavage came to 1.99.

As to G11U C118U, the self-cleavage stood at 0.91.

Take U9C U143A: the self-cleavage was determined as 1.28.

As for G11A U26C, the self-cleavage was 1.4.

For the variant U9G A138U, the self-cleavage was 1.51.

G11A C84U: the self-cleavage is 0.15.

Regarding U9C U85A, the self-cleavage is 0.17.

On to U9C U85C, for which the self-cleavage was 0.3.

For U9C U26A, the self-cleavage came out at 1.14.

Take G11A U96C: the self-cleavage came to 0.08.

Consider U9C G80A, for which the self-cleavage stood at 1.65.

For the variant G10A U96C, the self-cleavage came out at 0.16.

On to U9C U20C, for which the self-cleavage was determined as 1.05.

With U9C U20G, the self-cleavage came out at 1.16.

As for G11U A59U, the self-cleavage worked out at 1.02.

In the case of G10A C131U, the self-cleavage worked out at 1.19.

G10U A138U: the self-cleavage amounted to 1.

As to G10A U15C, the self-cleavage was 1.2.

As for G10A A141G, the self-cleavage came out at 0.94.

Consider U9C U109C, for which the self-cleavage was 0.99.

Turning to U9C U109A, the self-cleavage was found to be 1.37.

On to U9C G105A, for which the self-cleavage came out at 1.47.

Turning to U9G A117G, the self-cleavage is 1.31.

For the variant U9G A117U, the self-cleavage stood at 1.07.

In the case of G10A A57U, the self-cleavage worked out at 0.07.

As for U9G U14C, the self-cleavage worked out at 0.68.

Consider G10A A30G, for which the self-cleavage was 1.19.

For the variant U9C G122C, the self-cleavage is 0.

G10A G11A: the self-cleavage was found to be 1.61.

As to U9G U102C, the self-cleavage was 1.26.

On to U9C U130C, for which the self-cleavage came to 1.3.

Turning to U9C U130A, the self-cleavage stood at 1.16.

For the variant U9C U130G, the self-cleavage was 0.74.

As for G11A A107G, the self-cleavage came to 1.65.

Turning to G10A A129U, the self-cleavage worked out at 0.66.

With G11A U104C, the self-cleavage stood at 1.59.

In the case of U9C U45G, the self-cleavage was 1.56.

As for G11U A129G, the self-cleavage stood at 0.83.

Take G10U C61U: the self-cleavage is 0.05.

For the variant G10C G55A, the self-cleavage is 0.6.

For the variant U9C U96G, the self-cleavage came out at 0.

Regarding U9G A77G, the self-cleavage worked out at 1.55.

On to G10A G36C, for which the self-cleavage is 1.89.

In the case of G11A U119C, the self-cleavage was determined as 0.93.

Take G11C A67G: the self-cleavage turned out to be 0.46.

Regarding G10A A67G, the self-cleavage was 0.42.

Take G11A G126A: the self-cleavage is 1.2.

Take G10A U100C: the self-cleavage is 0.49.

Consider U9C G83U, for which the self-cleavage came out at 0.94.

As for G11C A50G, the self-cleavage came to 0.71.

Turning to U9G A65G, the self-cleavage turned out to be 0.25.

As for U9G U12A, the self-cleavage worked out at 0.16.

Consider G11C U20A, for which the self-cleavage was 0.54.

For U9C U47C, the self-cleavage amounted to 1.45.

Turning to U9C U47A, the self-cleavage worked out at 1.18.

G11C U109C: the self-cleavage came out at 2.63.

Turning to G11A A64C, the self-cleavage was 0.1.

U9G U115C: the self-cleavage was 0.29.

For G10A G35A, the self-cleavage was 0.92.

Turning to U9G A136G, the self-cleavage turned out to be 0.68.

Consider U9G U112C, for which the self-cleavage was 0.73.

Regarding G10A U130C, the self-cleavage worked out at 2.22.

With G10A U104A, the self-cleavage turned out to be 0.91.

Regarding G10A U143C, the self-cleavage is 1.4.

For G11A G139A, the self-cleavage is 1.91.

On to G10U G97A, for which the self-cleavage is 0.11.

On to G11A A138G, for which the self-cleavage was found to be 1.93.

On to G10A U12G, for which the self-cleavage turned out to be 0.83.

Turning to U9C G86A, the self-cleavage was 0.16.

In the case of G10A U102C, the self-cleavage is 1.39.

As for G10C U96A, the self-cleavage was 0.22.

With U9C U134C, the self-cleavage turned out to be 1.05.

Consider G11A G70U, for which the self-cleavage was found to be 0.07.

For the variant G10A U73A, the self-cleavage was 1.55.

For G10A U52A, the self-cleavage worked out at 0.97.

G11A A42G: the self-cleavage came to 1.43.

Turning to U9G U96C, the self-cleavage was determined as 0.

As for U9G G74A, the self-cleavage turned out to be 0.88.

Take G10A G97A: the self-cleavage was found to be 0.09.

In the case of U9C U132C, the self-cleavage was 1.47.

With U9G G93U, the self-cleavage worked out at 0.05.

As to U9C U14C, the self-cleavage was determined as 1.18.

Turning to U9C U104A, the self-cleavage was found to be 1.4.

For the variant U9C U91A, the self-cleavage came out at 0.7.

Take U9C U91C: the self-cleavage turned out to be 1.75.

Turning to G10A U115C, the self-cleavage turned out to be 1.51.

In the case of G10A U115A, the self-cleavage turned out to be 0.86.

On to U9C U108C, for which the self-cleavage was determined as 1.54.

On to U9C G114A, for which the self-cleavage came to 1.42.

Regarding U9C G127U, the self-cleavage was 1.45.

With G11U A42G, the self-cleavage was 1.58.

For the variant U9C U13C, the self-cleavage is 1.19.

For the variant U9C U13A, the self-cleavage is 1.11.

Regarding G10U U112C, the self-cleavage came out at 0.93.

In the case of U9C U81C, the self-cleavage stood at 1.21.

Regarding U9C U81A, the self-cleavage is 1.95.

Turning to G11A G105A, the self-cleavage turned out to be 1.27.

For G11A U112C, the self-cleavage is 1.37.

As for G10A U20C, the self-cleavage was 1.6.

On to G10A U109C, for which the self-cleavage came to 1.08.

U12A: the self-cleavage was found to be 1.17.

For the variant U9G U85C, the self-cleavage amounted to 0.38.

In the case of U9C U15G, the self-cleavage is 1.09.

As for U9C U15A, the self-cleavage worked out at 0.5.

On to U9C U15C, for which the self-cleavage came out at 1.28.

As to U9G A142G, the self-cleavage was found to be 0.95.

For the variant U9C U23A, the self-cleavage was determined as 1.22.

As to G10A A64G, the self-cleavage was 0.22.

On to G10A U119A, for which the self-cleavage was 0.93.

On to G10A U119C, for which the self-cleavage came to 1.

For the variant U9G U100C, the self-cleavage was found to be 1.61.

Regarding U9G U100A, the self-cleavage was found to be 0.86.

Consider G10A A65G, for which the self-cleavage worked out at 0.02.

With G10A A65U, the self-cleavage is 0.14.

With G10A G48U, the self-cleavage stood at 0.89.

With U9C U62C, the self-cleavage was 0.18.

Consider U9C G139A, for which the self-cleavage is 1.09.

As for U9C G82A, the self-cleavage turned out to be 2.23.

G10U U13C: the self-cleavage worked out at 0.83.

Take G11A A77G: the self-cleavage is 1.08.

On to G10A U112C, for which the self-cleavage worked out at 1.66.

U9C U29C: the self-cleavage was determined as 1.72.

As to G10A G21A, the self-cleavage came to 1.14.

U9C U112G: the self-cleavage was 2.63.

Turning to G11C A138G, the self-cleavage amounted to 1.22.

For the variant U9G A107G, the self-cleavage turned out to be 1.13.

Consider U9G A107U, for which the self-cleavage amounted to 0.46.

Regarding U9C U119C, the self-cleavage stood at 1.36.

As for U9C U119A, the self-cleavage amounted to 1.36.

For the variant U9G, the self-cleavage came to 0.93.

Consider U9C U100C, for which the self-cleavage is 1.51.

U9C U100A: the self-cleavage was 1.41.

For the variant G11A A124G, the self-cleavage was found to be 0.85.

Regarding U9G U119C, the self-cleavage came to 1.32.

Take G10A A117U: the self-cleavage amounted to 1.21.

Take U9C U73A: the self-cleavage worked out at 1.58.

U9C U73C: the self-cleavage was determined as 1.27.

As to G10A A78G, the self-cleavage is 0.91.

Take G11A U52C: the self-cleavage worked out at 1.41.

For G10A U134C, the self-cleavage worked out at 1.5.

For U9G U13C, the self-cleavage was determined as 0.65.

With U9G U13G, the self-cleavage is 1.31.

For the variant U9G C146U, the self-cleavage came to 1.29.

Take G10A U29C: the self-cleavage is 1.12.

As for G10U A78G, the self-cleavage worked out at 1.09.

For the variant G11A U109C, the self-cleavage was determined as 1.4.

In the case of G11A A24U, the self-cleavage turned out to be 1.72.

G10A A142G: the self-cleavage was 1.42.

As to U9G A124U, the self-cleavage is 1.12.

With G10A A69G, the self-cleavage was found to be 0.64.

For the variant G11U, the self-cleavage is 1.56.

Consider G11A, for which the self-cleavage came to 1.31.

For G11C, the self-cleavage came out at 1.42.

For U9C U52G, the self-cleavage turned out to be 1.69.

G11A A94G: the self-cleavage was determined as 0.08.
